Laboratory results from publication PMC3713010, “Sox2 Transcriptionally Regulates Pqbp1, an Intellectual Disability-Microcephaly Causative Gene, in Neural Stem Progenitor Cells”.

Tests used:
Assay in all cases: EMSA; 10% glycerol, 20 mM HEPES pH 7.8, 45 mM KCl, 10 mM NaCl, 1 mM EDTA, 1 mM DTT, 0.2 ug/uL BSA, 0.1% NP-40, 50 ng poly-dIdC; 20 ng each GST protein; room temperature 30 min (heterodimers 4 C); 6% PAGE 0.25x TBE
Conditions in all cases: protein: recombinant; tags: GST (N-terminal, pGEX-6P-1); label: 32P-dCTP fill-in of the 5' (dG)5 overhangs of both strands (Methods; control probes are given with GGG)
[1] = biological target: Pax6 DNA-binding domain (BD-Pax6) (Mus musculus (B6), UniProt P63015 190-289)
Sequence of Pax6 DNA-binding domain (BD-Pax6) (P63015 190-289): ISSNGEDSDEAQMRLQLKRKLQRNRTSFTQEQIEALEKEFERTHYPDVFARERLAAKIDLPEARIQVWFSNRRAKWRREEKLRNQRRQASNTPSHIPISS
Procedure, shortened: (§1)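 Candidate cis-element oligonucleotides were annealed, labelled with 32P-dCTP and tested against GST-tagged transcription factor DNA-binding domains made in E. coli BL21 and purified on glutathione-sepharose. For each binding reaction, 20 ng protein was combined with 40,000–50,000 cpm probe and 50 ng poly-dIdC in HEPES/KCl glycerol buffer containing BSA and detergent for 30 min at room temperature. Gels of 6% polyacrylamide in 0.25×TBE were run at 4°C, and band radioactivity was measured on a BAS4000 imager. The readout for DNA binding was the band signal in the expected shift region.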

[2] = biological target: T1, Brn2 DNA-binding domain (BD-Brn2) (Mus musculus (B6), UniProt P31360 336-435)
T1 sequence: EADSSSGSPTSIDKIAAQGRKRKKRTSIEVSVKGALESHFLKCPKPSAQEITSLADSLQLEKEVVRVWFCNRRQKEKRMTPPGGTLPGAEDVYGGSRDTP
Procedure, shortened: as §1

[3] = biological target: T2, Oct6 DNA-binding domain (BD-Oct6) (Mus musculus (B6), UniProt P21952 317-416)
T2 sequence: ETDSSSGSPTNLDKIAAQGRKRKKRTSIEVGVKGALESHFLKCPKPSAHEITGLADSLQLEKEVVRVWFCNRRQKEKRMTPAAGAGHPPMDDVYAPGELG
Procedure, shortened: as §1

B1: 98 (dsDNA)
DNA 1: GGGGGTTATGAATACAATTCATTATAACCATGGATCCCCC
DNA 2: GGGGGATCCATGGTTATAATGAATTGTATTCATAACCCCC
B1: no binding [1]; binds [2]; binds [3].

B2: 99 (dsDNA)
DNA 1: GGGGGATATAACAAGATAATCATTGTTTTGAATATTCCAAGGATTTCCCCC
DNA 2: GGGGGAAATCCTTGGAATATTCAAAACAATGATTATCTTGTTATATCCCCC
B2: binds [1]; binds [2]; binds [3].
